Common to all, as to test: pull-down binding Z-score (relative to library population); higher = stronger binding
Common to all, as to conditions: RNA library: Library-2

Data set [1] has as its system TO-3-N3 (biotin conjugate). Summed up: (§1)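 Streptavidin beads with 100 pmol of biotin-conjugated small molecule were incubated for 60 min at 25 °C with 1 μg of heat-folded Cy5- or Cy3-end-labelled RNA library in phosphate/NaCl/KCl buffer. Bound RNA was eluted in hot SDS after three washes and hybridised to a DNA barcode microarray at 55.5 °C for 20 h. Each binding score is a library-referenced Z-score, computed after beads-only subtraction and a trimmed mean of barcoded replicate probes.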

The test system of data set [2] is TO-N3 (biotin conjugate). In short, it runs like this: as §1
Data set [3] concerns TO-N3-2 (biotin conjugate). In short, it runs like this:
as §1

Data set [4] deals with TO-3-N3-2 (biotin conjugate). In short, it runs like this:
as §1

Results on 34 sequences are retold here after the supplement of paper PMC11865577.

On to “AAUGUAGUAGAAUUAUACCUGCACGUGCUCGUGUAGAGUGUUUUGAUAAAUUCAAAGUGAAUUCAACAUUAGAACAGUAUGUCUUUUGUACUGUAAAUGCAUU”, for which the “pull-down binding Z-score” value was 0.059 in data set [1], 0.182 in data set [2], -0.209 in data set [3] and 0.0794 in data set [4].

Turning to “ACGUGAGUCUUGUAAAACCUUCUUUUUACGUUUACUCUCGU”, the “pull-down binding Z-score” value in data set [1] is 0.0863; in data set [2], 0.206; in data set [3], -0.213; in data set [4], 0.0619.

As for “GAUAACAACUUC [SHAPE_invitro_SARS-CoV-2_Motif_16]”, the “pull-down binding Z-score” value in data set [1] is 0.519; in data set [2] it was 0.252; in data set [3] it was -0.77; in data set [4] it was 0.0515.

Consider “CCAGUACCAGAGGUGAAAAUACUCAAUAAUUUGGGUGUGGACAUUGCUGCUAAUACUGUG”, for which the “pull-down binding Z-score” value in data set [1] is 1.32; in data set [2], 1.18; in data set [3], -0.0208; in data set [4] it was 0.266.

As for “CUUGAACAAUGGAACCUAGUAAUAGGUUUCCUAUUCCUUACAUGGAUUUGUCUUCUACAAUUUGCCUAUGCCAACAGG”, the “pull-down binding Z-score” value in data set [1] is -0.5; in data set [2] it was -0.466; in data set [3], -0.374; in data set [4], -0.181.

As for “GGAACCUAGUAAUAGGUUUCC [DMSMaPseq_invitro_SARS-CoV-2_Motif_479]”, the “pull-down binding Z-score” value in data set [1] is 0.7; in data set [2], 0.439; in data set [3], -0.779; in data set [4] it was -0.0496.

For GAUUUUGGGACUACCAACUC, the “pull-down binding Z-score” value in data set [1] is -0.579; in data set [2], -0.683; in data set [3], -0.581; in data set [4], -0.384.

In the case of “AAUUGAUUCUUACUUUGUAGUUAAGAGACACACUUUCUCUAACUACCAACAUGAAGAAACAAUU”, the “pull-down binding Z-score” value in data set [1] was 0.502; in data set [2] it was 0.281; in data set [3] it was -0.614; in data set [4] it was 0.0491.

“CAUGUCAUGUCUAAACAUACUGACUUUUCAAGUG [SHAPE_invitro_SARS-CoV-2_Motif_169]”: the “pull-down binding Z-score” value in data set [1] was -0.283; in data set [2], -0.41; in data set [3], -0.539; in data set [4], -0.276.

For “CGGGACCAACGAGGAAAUGUACUACUGUCUCCCG [IAV_invivo_PB2_1_Motif_23+IAV_invivo_PB2_1_Motif_23]”, the “pull-down binding Z-score” value was -0.431 in data set [1], -0.196 in data set [2], 0.354 in data set [3] and 0.118 in data set [4].

On to GCGCUGCCAGAAACUGGCUCAGCGC [bulge-UC], for which the “pull-down binding Z-score” value in data set [1] is -0.319; in data set [2] it was -0.584; in data set [3] it was -0.361; in data set [4], -0.576.

As to “UCUUAAGAGAGGUGAUAAAAGUGUAUAUUACACUAGUAAUCCUACCACAUUCCACCUAGAUGGUGAAGUUAUCACCUUUGACAAUCUUAAGA”, the “pull-down binding Z-score” value in data set [1] is 0.836; in data set [2], 0.528; in data set [3] it was -0.559; in data set [4] it was -0.0579.

On to “GUGCAGAAUGAAUUCUCGUAACUACAUAGCACAAGUAGAUGUAGUUAACUUUAAUCUCAC”, for which the “pull-down binding Z-score” value in data set [1] is -0.768; in data set [2], -0.646; in data set [3] it was -0.275; in data set [4], -0.202.

For the sequence “GUGGUGAGACACUUGGUGUCCUUGUCCCUCAUGUGGGCGAAAUACCAGUGGCUUACCGC”, the “pull-down binding Z-score” value in data set [1] was 0.769; in data set [2] it was 0.798; in data set [3], 0.812; in data set [4], -0.0757.

In the case of AUUGGUGCAGGUAUAUGCGCUAGU, the “pull-down binding Z-score” value in data set [1] is -0.974; in data set [2], -1.16; in data set [3], -0.926; in data set [4] it was -0.674.

Take “GUAUGAGCAGUAUAU [DMSMaPseq_invitro_SARS-CoV-2_Motif_451]”: the “pull-down binding Z-score” value in data set [1] was -0.638; in data set [2] it was -0.709; in data set [3], -0.416; in data set [4], -0.295.

Consider “ACCAACCACCACAAACCUCUAUCACCUCAGCUGUUUUGCAGAGUGGUUUUAGAAAAAUGGCAUUCCCAUCUGGU”, for which the “pull-down binding Z-score” value amounted to 0.0884 in data set [1], 0.386 in data set [2], 0.456 in data set [3] and 0.384 in data set [4].

As for GCAUGAUGUUUCAUCUGC, the “pull-down binding Z-score” value was 1.18 in data set [1], 0.951 in data set [2], -0.496 in data set [3] and 0.0512 in data set [4].

As for “AAGAGAAAGUCAACAUCAAUAUUGUUGGUGACUUUAAACUU”, the “pull-down binding Z-score” value in data set [1] is 0.608; in data set [2] it was 0.557; in data set [3] it was -0.494; in data set [4], -0.0741.

Turning to UAGCGUGCCUUUGUAAGCACAAGCUG, the “pull-down binding Z-score” value is 0.532 in data set [1], 0.57 in data set [2], 0.342 in data set [3] and 0.0842 in data set [4].

Turning to GUUGAAGAAGUUACAAC, the “pull-down binding Z-score” value in data set [1] was 0.355; in data set [2], 0.365; in data set [3], -0.168; in data set [4], 0.148.

Turning to “GGAUGGUCUUCAAUCC [IAV_invivo_PB1_2_Motif_23+IAV_invivo_PB1_2_Motif_23]”, the “pull-down binding Z-score” value was -0.481 in data set [1], -0.47 in data set [2], -0.515 in data set [3] and -0.137 in data set [4].

As to “UCCCAUGAGGGG [IAV_invivo_HA_4_Motif_6+IAV_invivo_HA_4_Motif_6]”, the “pull-down binding Z-score” value in data set [1] is -0.753; in data set [2], -1.28; in data set [3], -1.39; in data set [4], -0.725.

For the sequence “CACAUCAGUAGUCUUACUCUCAGUUUUGCAACAACUCAGAGUAGAAUCAUCAUCUAAAUUGUG [DMSMaPseq_invitro_SARS-CoV-2_Motif_209]”, the “pull-down binding Z-score” value in data set [1] was -0.736; in data set [2], -0.843; in data set [3] it was -0.741; in data set [4] it was -0.352.

Turning to “GAUUUGGCUACUAACAAUC [SHAPE_invitro_SARS-CoV-2_Motif_40]”, the “pull-down binding Z-score” value is 0.705 in data set [1], 0.624 in data set [2], -0.0811 in data set [3] and 0.126 in data set [4].

In the case of “GUCUGAUAAUGGACCCCAAAAUCAGCGAAAUGCACCCCGCAUUACGUUUGGUGGACCCUCAGAU”, the “pull-down binding Z-score” value was -0.49 in data set [1], -0.521 in data set [2], -0.0686 in data set [3] and -0.237 in data set [4].

Take “GGGAAGAACACC [IAV_invivo_M1_M2_7_Motif_3+IAV_invivo_M1_M2_7_Motif_3]”: the “pull-down binding Z-score” value was 1.13 in data set [1], 0.899 in data set [2], -0.0552 in data set [3] and 5.36e-05 in data set [4].

As to “CUCAGUCCAAGAUGGUAUUUCUACUACCUAGGAACUGGG [SHAPE_invivo_SARS-CoV-2_Motif_544]”, the “pull-down binding Z-score” value was -0.642 in data set [1], -0.646 in data set [2], -0.627 in data set [3] and -0.217 in data set [4].

As to “AGUCAUAGUCAGUUAGGUGGUUUACAUCUACUGAUUGGACU”, the “pull-down binding Z-score” value was -1.18 in data set [1], -1.35 in data set [2], -0.775 in data set [3] and -0.281 in data set [4].

On to GCGCUGCCAGAAACUGGCUUUAGCGC [bulge-UUU], for which the “pull-down binding Z-score” value is -0.00635 in data set [1], -0.24 in data set [2], -0.562 in data set [3] and -0.158 in data set [4].

For the sequence “UAGCUGUACCCUAUAAUAUGAGAGUUAUACAUUUUGGUGCUGGUUCUGAUAAAGGAGUUGCACCAGGUACAGCUG”, the “pull-down binding Z-score” value in data set [1] was -0.371; in data set [2] it was -0.515; in data set [3], -0.588; in data set [4] it was -0.121.

AUCCGAUUUACAGGAU: the “pull-down binding Z-score” value in data set [1] is -0.684; in data set [2], -0.894; in data set [3] it was -1.16; in data set [4] it was -0.525.

On to “GUACAUACAGCUAAUAAAUGGGAUCUCAUUAUUAGUGAUAUGUAC”, for which the “pull-down binding Z-score” value in data set [1] was -0.823; in data set [2], -0.621; in data set [3], 0.426; in data set [4] it was -0.167.

As for “AAUUAUAAAUUACCAGAUGAUUUUACAGGCUGCGUUAUAGCUUGGAAUUCUAACAAUCUUGAUUCUAAGGUUGGUGGUAAUUAUAAUU”, the “pull-down binding Z-score” value in data set [1] is -0.932; in data set [2] it was -0.993; in data set [3] it was -0.712; in data set [4], -0.123.
